# Measured values published in IntAct's records for PubMed 21968187.
# B1: Amyloid beta precursor protein binding family B member 1 (Homo sapiens), O00213 (parent)
# chain: MSVPSSLSQSAINANSHGGPALSLPLPLHAAHNQLLNAKLQATAVGPKDLRSAMGEGGGPEPGPANAKWLKEGQNQLRRAATAHRDQNRNVTLTLAEEASQEPEMAPLGPKGLIHLYSELELSAHNAANRGLRGPGLIISTQEQGPDEGEEKAAGEAEEEEEDDDDEEEEEDLSSPPGLPEPLESVEAPPRPQALTDGPREHSKSASLLFGMRNSAASDEDSSWATLSQGSPSYGSPEDTDSFWNPNAFETDSDLPAGWMRVQDTSGTYYWHIPTGTTQWEPPGRASPSQGSSPQEESQLTWTGFAHGEGFEDGEFWKDEPSDEAPMELGLKEPEEGTLTFPAQSLSPEPLPQEEEKLPPRNTNPGIKCFAVRSLGWVEMTEEELAPGRSSVAVNNCIRQLSYHKNNLHDPMSGGWGEGKDLLLQLEDETLKLVEPQSQALLHAQPIISIRVWGVGRDSGRERDFAYVARDKLTQMLKCHVFRCEAPAKNIATSLHEICSKIMAERRNARCLVNGLSLDHSKLVDVPFQVEFPAPKNELVQKFQVYYLGNVPVAKPVGVDVINGALESVLSSSSREQWTPSHVSVAPATLTILHQQTEAVLGECRVRFLSFLAVGRDVHTFAFIMAAGPASFCCHMFWCEPNAASLSEAVQAACMLRYQKCLDARSQASTSCLPAPPAESVARRVGWTVRRGVQSLWGSLKPKRLGAHTP
# Variants of: B1
# Conditions: with lrp1_human LRP1, Q07954
# Chain of lrp1_human LRP1, Q07954 (Q07954 whole entry): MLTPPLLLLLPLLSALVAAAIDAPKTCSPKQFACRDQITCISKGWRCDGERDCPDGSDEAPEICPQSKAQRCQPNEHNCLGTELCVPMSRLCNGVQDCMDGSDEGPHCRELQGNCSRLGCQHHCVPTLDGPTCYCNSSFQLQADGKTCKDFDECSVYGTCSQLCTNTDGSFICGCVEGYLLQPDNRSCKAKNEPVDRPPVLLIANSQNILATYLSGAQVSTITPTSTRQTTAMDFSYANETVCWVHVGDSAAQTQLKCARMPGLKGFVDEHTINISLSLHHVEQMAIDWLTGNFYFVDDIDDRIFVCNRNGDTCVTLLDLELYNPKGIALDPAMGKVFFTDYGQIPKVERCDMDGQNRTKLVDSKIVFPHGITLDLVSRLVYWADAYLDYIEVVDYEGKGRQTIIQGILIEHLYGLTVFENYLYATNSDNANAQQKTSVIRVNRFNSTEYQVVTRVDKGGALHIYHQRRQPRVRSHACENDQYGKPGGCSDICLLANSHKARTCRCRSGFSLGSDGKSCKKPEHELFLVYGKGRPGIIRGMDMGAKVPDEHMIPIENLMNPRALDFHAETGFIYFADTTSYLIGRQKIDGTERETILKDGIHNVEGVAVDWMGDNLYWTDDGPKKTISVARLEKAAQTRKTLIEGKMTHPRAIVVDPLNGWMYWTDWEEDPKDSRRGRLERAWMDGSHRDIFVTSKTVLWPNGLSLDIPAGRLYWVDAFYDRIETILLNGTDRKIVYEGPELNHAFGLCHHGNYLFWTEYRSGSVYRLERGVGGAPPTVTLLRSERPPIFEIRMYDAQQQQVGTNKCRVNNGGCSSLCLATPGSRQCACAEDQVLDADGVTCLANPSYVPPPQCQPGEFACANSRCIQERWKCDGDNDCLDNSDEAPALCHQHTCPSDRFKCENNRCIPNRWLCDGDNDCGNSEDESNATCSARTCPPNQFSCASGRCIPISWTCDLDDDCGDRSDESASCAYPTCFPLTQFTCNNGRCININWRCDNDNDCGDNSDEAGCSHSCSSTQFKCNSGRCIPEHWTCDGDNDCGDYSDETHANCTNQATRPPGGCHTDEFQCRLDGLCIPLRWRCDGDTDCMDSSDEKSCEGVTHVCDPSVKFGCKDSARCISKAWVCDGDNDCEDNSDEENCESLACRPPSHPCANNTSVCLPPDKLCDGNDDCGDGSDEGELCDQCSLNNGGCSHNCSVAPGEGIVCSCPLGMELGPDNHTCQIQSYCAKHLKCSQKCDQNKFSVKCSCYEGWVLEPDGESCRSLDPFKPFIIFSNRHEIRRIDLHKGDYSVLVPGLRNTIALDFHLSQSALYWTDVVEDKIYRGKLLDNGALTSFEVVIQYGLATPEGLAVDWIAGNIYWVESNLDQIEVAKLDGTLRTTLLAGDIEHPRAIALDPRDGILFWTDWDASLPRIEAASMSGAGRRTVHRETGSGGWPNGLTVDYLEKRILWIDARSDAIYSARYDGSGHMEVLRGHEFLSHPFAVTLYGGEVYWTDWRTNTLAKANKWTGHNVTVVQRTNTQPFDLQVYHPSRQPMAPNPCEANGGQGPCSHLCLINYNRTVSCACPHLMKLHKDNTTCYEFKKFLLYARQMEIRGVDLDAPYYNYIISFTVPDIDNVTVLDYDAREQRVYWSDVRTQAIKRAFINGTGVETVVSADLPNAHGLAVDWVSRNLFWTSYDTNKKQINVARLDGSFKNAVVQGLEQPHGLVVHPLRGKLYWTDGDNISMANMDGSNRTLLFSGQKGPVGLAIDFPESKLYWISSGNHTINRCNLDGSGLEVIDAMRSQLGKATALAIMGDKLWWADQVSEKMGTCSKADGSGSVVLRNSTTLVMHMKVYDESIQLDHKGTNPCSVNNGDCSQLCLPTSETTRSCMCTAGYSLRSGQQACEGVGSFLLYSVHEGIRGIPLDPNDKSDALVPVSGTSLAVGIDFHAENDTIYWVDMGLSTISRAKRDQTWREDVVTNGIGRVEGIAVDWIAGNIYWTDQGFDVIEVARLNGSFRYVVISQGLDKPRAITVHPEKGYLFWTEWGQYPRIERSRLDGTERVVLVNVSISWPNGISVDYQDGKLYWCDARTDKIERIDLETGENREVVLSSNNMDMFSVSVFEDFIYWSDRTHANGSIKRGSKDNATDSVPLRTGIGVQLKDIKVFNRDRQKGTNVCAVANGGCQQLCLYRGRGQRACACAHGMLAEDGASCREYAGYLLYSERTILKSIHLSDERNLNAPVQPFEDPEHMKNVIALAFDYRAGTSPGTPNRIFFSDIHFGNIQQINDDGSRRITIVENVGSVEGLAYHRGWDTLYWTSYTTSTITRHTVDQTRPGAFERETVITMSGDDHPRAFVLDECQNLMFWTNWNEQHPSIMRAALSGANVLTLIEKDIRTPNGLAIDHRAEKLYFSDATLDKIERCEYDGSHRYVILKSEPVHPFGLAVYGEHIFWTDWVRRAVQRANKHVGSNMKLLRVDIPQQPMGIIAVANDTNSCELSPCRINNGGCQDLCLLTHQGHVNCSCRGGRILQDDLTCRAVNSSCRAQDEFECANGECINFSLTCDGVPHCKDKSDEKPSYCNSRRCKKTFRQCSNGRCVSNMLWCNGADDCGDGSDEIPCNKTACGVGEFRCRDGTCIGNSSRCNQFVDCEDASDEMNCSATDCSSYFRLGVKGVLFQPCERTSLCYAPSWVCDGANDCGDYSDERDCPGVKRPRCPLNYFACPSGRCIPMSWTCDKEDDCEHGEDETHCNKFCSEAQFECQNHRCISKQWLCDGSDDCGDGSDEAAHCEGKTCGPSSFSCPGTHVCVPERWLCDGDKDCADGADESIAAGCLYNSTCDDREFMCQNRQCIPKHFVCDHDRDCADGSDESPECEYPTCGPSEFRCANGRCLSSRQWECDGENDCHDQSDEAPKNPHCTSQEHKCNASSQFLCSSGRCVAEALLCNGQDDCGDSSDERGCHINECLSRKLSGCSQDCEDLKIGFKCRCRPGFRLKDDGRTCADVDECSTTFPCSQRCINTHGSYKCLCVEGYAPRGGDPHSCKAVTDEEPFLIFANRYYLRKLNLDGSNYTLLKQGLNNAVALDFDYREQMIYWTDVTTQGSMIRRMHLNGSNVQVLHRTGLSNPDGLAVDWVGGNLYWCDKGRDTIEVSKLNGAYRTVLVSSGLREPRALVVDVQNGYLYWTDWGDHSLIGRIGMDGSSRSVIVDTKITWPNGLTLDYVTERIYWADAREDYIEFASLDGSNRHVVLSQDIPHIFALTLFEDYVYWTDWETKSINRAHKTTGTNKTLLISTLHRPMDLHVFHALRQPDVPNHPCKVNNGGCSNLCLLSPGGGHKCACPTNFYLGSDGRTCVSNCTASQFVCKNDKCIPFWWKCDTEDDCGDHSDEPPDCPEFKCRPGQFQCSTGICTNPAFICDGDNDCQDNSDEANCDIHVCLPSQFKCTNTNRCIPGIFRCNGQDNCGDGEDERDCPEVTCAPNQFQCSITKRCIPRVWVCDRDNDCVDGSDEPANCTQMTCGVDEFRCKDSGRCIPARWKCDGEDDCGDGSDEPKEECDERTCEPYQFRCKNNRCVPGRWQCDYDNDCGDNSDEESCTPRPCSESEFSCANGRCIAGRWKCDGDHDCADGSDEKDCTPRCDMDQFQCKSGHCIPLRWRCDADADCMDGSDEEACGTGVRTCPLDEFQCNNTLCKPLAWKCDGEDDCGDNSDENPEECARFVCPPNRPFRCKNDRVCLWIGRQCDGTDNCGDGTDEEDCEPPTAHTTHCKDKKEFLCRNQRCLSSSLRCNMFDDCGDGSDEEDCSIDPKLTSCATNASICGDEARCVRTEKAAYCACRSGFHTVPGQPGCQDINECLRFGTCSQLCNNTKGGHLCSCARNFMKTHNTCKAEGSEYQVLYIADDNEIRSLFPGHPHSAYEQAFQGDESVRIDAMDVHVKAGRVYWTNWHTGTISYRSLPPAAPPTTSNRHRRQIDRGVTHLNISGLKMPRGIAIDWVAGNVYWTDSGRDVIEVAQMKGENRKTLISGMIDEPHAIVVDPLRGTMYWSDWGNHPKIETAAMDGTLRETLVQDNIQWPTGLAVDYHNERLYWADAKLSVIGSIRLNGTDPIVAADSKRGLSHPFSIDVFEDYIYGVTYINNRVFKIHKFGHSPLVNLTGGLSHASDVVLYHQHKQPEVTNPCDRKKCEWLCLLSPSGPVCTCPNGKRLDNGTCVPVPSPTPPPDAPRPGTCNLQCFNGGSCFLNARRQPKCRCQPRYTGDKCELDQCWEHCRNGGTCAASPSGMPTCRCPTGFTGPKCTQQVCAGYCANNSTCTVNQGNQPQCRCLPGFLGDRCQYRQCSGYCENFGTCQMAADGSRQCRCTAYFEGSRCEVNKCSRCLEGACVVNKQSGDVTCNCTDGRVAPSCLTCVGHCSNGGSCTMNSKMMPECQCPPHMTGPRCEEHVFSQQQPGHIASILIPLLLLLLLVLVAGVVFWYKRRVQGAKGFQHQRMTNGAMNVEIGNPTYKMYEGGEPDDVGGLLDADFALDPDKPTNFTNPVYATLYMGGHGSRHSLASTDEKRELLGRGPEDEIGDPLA
row,Variant,effect of a mutation on the interaction
1,R451A,disrupting interaction
2,R470A,disrupting interaction
